Data from the DeepSol protein solubility set.

Experiment: soluble on expression in E. coli; label from the status in PepcDB or PDB records

Sequence	soluble on expression in E. coli
MGSDKIHHHHHHMERAAFGKLVQALRREHRDEKGRVWTQEVLAERTQLPKRTIERIENGSLAHLDADILLRLADALELTIGERREFFFAATGIIEQKSATYKRSPEESLQYLIDMIRNMNVPAFVTDQYVNIIAANMITIRFFNIPMELIETAPLLPHGYNLMRVVFGTEYDFRRVVGTMWDEVARHNMQLFRAISLRVRADGYFVELLDNLMQYREFKRFWERAHLETEDTSAENFWYQYTHPVYGLLSYVSSRSQIPTSMGLLSMHTYIPLSPATTDLFAKLSTVANQDVIRLAPWPRSNG	not soluble
MSLEDKDLRSIQEVRNLIESANKAQKELAAMSQQQIDTIVKAIADAGYGAREKLAKMAHEETGFGIWQDKVIKNVFASKHVYNYIKDMKTIGMLKEDNEKKVMEVAVPLGVVAGLIPSTNPTSTVIYKTLISIKAGNSIVFSPHPNALKAILETVRIISEAAEKAGCPKGAISCMTVPTIQGTDQLMKHKDTAVILATGGSAMVKAAYSSGTPAIGVGPGNGPAFIERSANIPRAVKHILDSKTFDNGTICASEQSVVVERVNKEAVIAEFRKQGAHFLSDAEAVQLGKFILRPNGSMNPAIVGKSVQHIANLAGLTVPADARVLIAEETKVGAKIPYSREKLAPILAFYTAETWQEACELSMDILYHEGAGHTLIIHSEDKEIIREFALKKPVSRLLVNTPGALGGIGATTNLVPALTLGCGAVGGSSSSDNIGPENLFNIRRIATGVLELEDIRKEENQATSELPVDADALIQSLVEKVLAELKEGHHHHHH	soluble
MQKRHTNRERYFEEQAQTTRNYYIPYIKEYTGNLPNKVLEVGCGEGGNLLPFAELGCDVIGIDIAASRIEQAQNFFITKRQKGTFIASDIFLLKDLQKHFPLILIHDVIEHIDNKEQFLRNLKKYLSPNGMIFIAFPAWQMPFGGHQQIARSKIISHMPFIHLLPRMLYKRILELFSEQESTVKELLTIKYTRCTIEMFRRVVKQTDYQIVNEQLYFINPHYKIKFGLTPHKLNKTIACIPFIRNVFSTSCFYLIRPT	not soluble
SMSMKATRLAIPDVILFEPRVFGDDRGFFFESYNQRAFEEACGHPVSFVQDNHSRSARGVLRGLHYQIRQAQGKLVRATLGEVFDVAVDLRRGSPTFGQWVGERLSAENKRQMWIPAGFAHGFVVLSEYAEFLYKTTDFWAPEHERCIVWNDPELKIDWPLQDAPLLSEKDRQGKAFADADCFP	soluble
MAPEAQVSVQPNFQQDKFLGRWFSAGLASNSSWLREKKAALSMCKSVVAPATDGGLNLTSTFLRKNQCETRTMLLQPAGSLGSYSYRSPHWGSTYSVSVVETDYDQYALLYSQGSKGPGEDFRMATLYSRTQTPRAELKEKFTAFCKAQGFTEDTIVFLPQTDKCMTEQAHHHHHH	soluble
MGSDKIHHHHHHMQLTSENYYSQEANKEYMSVSGYKDFAGTYGKMPCEFYGMEKLNGRWEDEKSTALLVGSYVDSYFEGSLDQFKKDNPEIFTQKGELKANFKQAEEIIARIERDEYFMKYMSGQKQVIMTGELFGAKWKIKMDSYIPGVAIVDLKVMASITDLKWVKDIGYLDFVRYWGYDIQGAVYQEIVRQNTGEKLPFFIAGATKQTEPDIRIIHVTDNYLQEALHMVEMNMPRILRVKNGEVEPDRCELCDCCRHNRVLKKPISIMDLTAGI	not soluble
MGSDKIHHHHHHMEKIKGKNTVNCEICLHNSKTRPMFKHEGKNICIECLNALKFPRNFEEMKNEVMDYLDELRIRNNKYNCILGFSGGKDSVVALYLLVKELRIRPLCVTVDNGYLAEEALTNCKNVAKYFGVDWLVINKDFTKFFKETISKGESPCRVCSDMNMHELWQFARQTNIDTIVTGHELPFGTTAIRGMKKGINMLRLLVAYKLTEEDRYNILKEIPWEKPDLGGYTTNCLVLAPALVEFKKKHGFSFEYDRVSAMIRYGLMTREEAEEALKCPEVSDEIYEELKKRGLDFKNLKE	not soluble
MSLGGPNADAQRANQRNVKKPNTQTKIRLPESVRTKKPVDMDVAPVRQSSRDEIRYAANELDTFIERELLAEGIAAEELASDEVFLRRIYLDVAGRIPTLQEAEQFLSSKSSDRREELIDQLLSSPDYVSHTYNWWADTLRLVDRPQPNLVADPYNGYIKESIAENKPYDKWVYEMLTADGKVWDNPAVGFQLRDDGMPLPYIDNTVRVFLGTQIGCAQCHDHPFDEWSQYQFYQLAAFTAGTSTRMRKGDPGYEKTNPANDLINEGKKRYEKGRVPGEFQRIARANTYIVSERPRRLRLPHDYAYRDAKPKDFVEPKVLWGEIPSSAAKSTPREQFAAWVTSPENPRFSQTVVNRLWKRLMGVGFVDPVDDFRDENPCVNEAAMDYLCKELVRRGFDLKELTRIVLYSQTYQRKAVDYDITDGDLYYFPGPTVRRMTAEQVWDSILTLAVDNPWPFQRPTAKEMKPVMDLDFSKVDFEEVQRRSAKFKETYFASTYKRNLNQHAYQRNVLCRASELPAPLPADHFLRQFGQGDREVINGSQDEATVPQILAMFNGPITHVMLEPGSALVDNVLEVNNVKNRIDAIFLSVLTRKPSTEDRILASRELSSQNQTGVGYGNIIWALLNTREFLFVQEGHHHHHH	not soluble
MQNEQLLQEVGLNAYEAAAYLSLLKLGVSEASDIYRDSEVPYGKIYSVLESLAGKGFVEVQASRPKKFRAVDPELALDTFFERRKAEVEREMAFLKSSVEEAKSVLKAVPTQKRKDEFFWTTAITESEIKKFAVSIYSEVKKSVCVLPPVFGISIVFYLLPEITKAIDRGVRIKLMISPRFMALASVLSHQEGEILEKLKKGLDIRLVQNSNSCFGIVDDSIVVLFQPHPTDRDRVLSVVKVRDSGLAKNLKEEFDLLWNAGEKLDLQEELEDKQNPGKN	not soluble
KLEGAFAKGTNVLMADGSIECIENIEVGNKVMGKDGRPREVIKLPRGRETMYSVVQKSQHRAHKSDSSREVPELLKFTCNATHELVVRTPRSVRRLSRTIKGVEYFEVITFEMGQKKAPDGRIVELVKEVSKSYPISEGPERANELVESYRKASNKAYFEWTIEARDLSLLGSHVRKATYQTYAPILYENDHFFDYMQKSKFHLTIEGPKVLAYLLGLWIGDGLSDRATFSVDSRDTSLMERVTEYAEKLNLCAEYKDRKEPQVAKTVNLYSKVVRGNGIRNNLNTENPLWDAIVGLGFLKDGVKNIPSFLSTDNIGTRETFLAGLIDSDGYVTDEHGIKATIKTIHTSVRDGLVSLARSLGLVVSVNAEPAKVDMNGTKHKISYAIYMSGGDVLLNVLSKCAGSKKFRPAPAAAFARECRGFYFELQELKEDDYYGITLSDDSDHQFLLANQVVVHACGER	soluble
MTGAVCPGSFDPVTLGHVDIFERAAAQFDEVVVAILVNPAKTGMFDLDERIAMVKESTTHLPNLRVQVGHGLVVDFVRSCGMTAIVKGLRTGTDFEYELQMAQMNKHIAGVDTFFVATAPRYSFVSSSLAKEVAMLGGDVSELLPEPVNRRLRDRLNTERT	not soluble
MAHHHHHHMYVRSISKELTKRMYNPSGHRIMMMDLKNKTTNNILNSRRYIVSYTKVHRTHYLEDYYTNPEIATNMISPMSEYIWWSWLLLQVN	not soluble
MGSDKIHHHHHHMSPKTDIAEVNQESLYRIFTIPEAPDSTLGKIEKHLSENLMGFLGEHIVAREKPLQEIERDFDKSQIPEEPAFVSDHTEFLLDKLVAHSVHTASPRFIGHMTSALPYFLLPLAKLMVGLNQNLVKIETSKAFTPLERNVIGMMHHLVYQQDAPFYNRWMHSAQHSLGAFCSGGTIANMTALWVARNRLLQADGDFAGISADGLAAGLQHYGYSKLTVVVSERGHYSLSKAADVLGIGRRNLVSVATDSDNRIRIDELRKTCEKIAKEGGKVLALVGVAGTTETGHIDPLDEMATVAEEVDAHFHVDAAWGGATLLSEQHRPLLAGIERADSVTIDAHKQMYVPMGAGLVLFKNPALVKSIEYHAEYIIRQGSKDLGSHTMEGSRAGMAMMVFSAMHVIGRRGYELLINNSIDKARYFSKLISEQDDFEVITEPELCILTYRFVPIKVKTVLDKATPEQLARLTPHLNALTRYIQKRQRETGQSFVSRTKLTPAQYHHEPTVVFRVVLANPLTTNEMLQEVLCEQRKIAAKATSLRGALHTEMRELGMLI	not soluble
MKTNREQEIYVERSFKPNNSTIQNLMDIERFILPHTSTSGVARLKMRVISWVGLQFYNY	soluble
MSLKTFTDRWRQLEWDDIRLRINGKTAADVERALNAAHLSRDDLMALLSPAAADYLEPIAQRAQRLTRQRFGNTVSFYVPLYLSNLCANDCTYCGFSMSNRIKRKTLDEVDIQRECDAIRKLGFEHLLLVTGEHQAKVGMDYFRRHLPTIRRQFSSLQMEVQPLSQENYAELKTLGIDGVMVYQETYHEAIYAQHHLKGKKQDFFWRLETPDRLGRAGIDKIGLGALIGLSDNWRVDCYMVAEHLLWMQKHYWQSRYSVSFPRLRPCTGGVEPASVMDEKQLVQTICAFRLLAPEIELSLSTRESPWFRDHVIPLAINNVSAFSKTQPGGYADDHPELEQFSPHDARRPETVASALSAQGLQPVWKDWDSWLGRASQTREGHHHHHH	not soluble
MPAHSLFSLSVSAALLLSAVPLPAQSAGWKPAEQIKTYAISGNTGGGLYQSIGERGPTAGVQAIAHTTFKLTWRRDYRPQPDGACVLVTARPNLTIIYTWPKAPSNLPPAVAASWKTFISGVETHERVHGEHILDMVKKIEAFSTGLRAENDPKCQKVRVVLQQRLGELSNEQRQRGRDFDRDELSPGGRVHQLILTLANGP	soluble
MLQGHRTWVFENKPVIISTGVVGGPFEAKGNIPEDFDILHEDLWLGQDSYEKAHKILFEEACSRATEKAELRKDDIQFVLAGDLINQITPTSFACRTLGTPYLGLFGACSTSMEGLALGASIVNAKGAKYLLTGASSHNTAVEKQFRYPTEYGGQKPPTAQWTVTGAGAAILSDTGHGPRVTSATIGRVIDMGLTDPFNMGGAMAPAAVDTIEAHLRERQIDASYYDLIVTGDLGHVGREIAYDLLHKHGTKVTSEQFQDCGIIIYREGQPVIAGASGPGCSATVVYGHLLNRMKRGEFKKILVVATGALLSPLTFQQEETIPCIAHAVSIEFGGATQLEHHHHHH	soluble
IYAYVPLRTPENTGHLALLDGQLELAYQPIVEVAGSDTAQYQVLLRLRKADGNLLSAGLVIPAAEAAGRIMELDQQVIEQALDILKLHQDTNQQLRLFVSQSVRTLIHEGFSDWIIKNLRERNVNGTGLVIDLRLQDAVIHAIPLKQLCKELLKHNVKFCLSQFESNSEATVLFSELPLNFVRLSQHFGDAHNHPERQKELPLLIEQAHEHNLHVIGQCIEDAQAATFMWMNGVDLIQGNLFQNV	not soluble
MSLWHGVIVATSLPFDDDLSVDFGAYGESVAHLAAQGMHGVAPNGSLGEYQTLTYEERDRVVETAVANAPEGFTVMPGVGAYGGREAERHARFAKDAGCQAVMCLPPNAYRADDRAVLQHFERVASVGLPVTAYNNPIDTKVDLRPDLLAKLHAEGYIVGVKEFSGDVRRCYEISELAPGLDLMIGTDDTVLEVALAGAKGWVAGYPQVFPRACLALYEASVRGDLEAALPLYRQLHPVLRWDSKTEFVQAIKLGQELTGRRGGPCRPPRQPLAPETEAVVRAATQALVDAGVNEGHHHHHH	soluble
MSLYSDQLVCPAHVPRGSPEGRVDAIAAMVTTRTAVQAPVERRTALFVNGQAWLTAQTTPHDLADWAVGRLCGEGLIAGPEEIAHLAVDEAGPCVHAVLPRVRTPAPPAPVAPGPRVAEAQLLRWMQEMLAQAPLYRATGGMHVAMAVRADSGEQIVREDIGRHQAVDKVLGAARLAGWPPAQVVVLTSGRISAEMCARVARFGAPVCASRTAATDEAWALATRLGMDLVGYVRTAASLIVYTTGNRVARRIEPEGHHHHHH	soluble
